Results as given in the nanobody polyreactivity screen of Harvey et al. (2022).

Experiment: yeast display, Sf9 membrane polyspecificity reagent, FACS + sequencing; frameworks hold sequencing errors
In short: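 In a synthetic yeast display library (Saccharomyces cerevisiae BJ5465), nanobody expression was induced with galactose for 36–48 hours. FACS gates were set low and high (top ~1%) using anti-HA fluorescence for expression and streptavidin fluorescence for binding of the Sf9 membrane reagent. Each polyreactivity label is drawn from the gate of origin.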
In the case of “QVQLVESGGGLVQAGGSLRLSCAASGITFHPYAKGWYRQAPGNEREFVAVISFRGGRTYYADSVKGRFTISRDNAKNNVYLQMNSLKPEDTAVYYCAAQYVSRRYSRYNYWGQGTQVTVSS”, the “polyreactivity (PSR sort gate)” value is reported as “high polyreactivity”.
For “QVQLVESGGGLVQAGGSLRLSCAASGSLFTGYAMGWYRQAPGKERELVAAISSSGSTTYYADSVKGRFTISRDNAKNTVYLQMNSLKPEDTAVYYCATRVNYGYYYWGQGSQVTVSS”, the “polyreactivity (PSR sort gate)” value was “high polyreactivity”.
With “QVQLVDSGGGLVQAGGSLRLSCAASGRTFAYNVMGWYRQAPGKERELVAAISRGGGRTYYADSVKGRFTIARDNAKNTVYLQMNSLKPEDTAVYYCNAYLFFLNRVWSFDYWGQGTQVTVSS” the “polyreactivity (PSR sort gate)” value was “high polyreactivity”.
For “QVQLVESGGGLVQAGGSLRLSCAASGRTFNWNAMGWYRQAPGKESEFVADISGRGGSTYYADSVKGRFTISRDNAKNTVYLQMNSLKPEETAVYYCAARPRFLRASVEFDYWGQGTQVTVSS”, the “polyreactivity (PSR sort gate)” value was “high polyreactivity”.
For “QVQLVESGGGLVQAGGSLRLSCAASGRIYWYYAMGWYRQAPGKERELVATISYGGGNTYYADTVKVRFTISRDNAKNTVYLQMNSLNPEDTAVYYCARVPYAYLPYKPFQQYSYDYWGQGTQVTVSS”, the “polyreactivity (PSR sort gate)” value was “high polyreactivity”.
In the case of “QVQLVESGGGLVQAGGSLRLSCAASGYIFLYNAMGWYRQAPGKERELVAAIRAIGGRTYYADSVKGRFTISRDNAKNTVYLQMNSLKPEDTAVYYCNARGQRRRSTGLRYIYDYWGQGTQVTVSS”, the “polyreactivity (PSR sort gate)” value is reported as “high polyreactivity”.
In the case of “QVQLVESGGGLVQAGGSLRLSCAASGSTLGYYSMGWYRQAPGKERELVAAIRYSDGNTYYADSVKGRFTISRDNAKNTVYLQMNSLKPEDTAVYYCAADGGYYGRDYWGQVTQVTVSS”, the “polyreactivity (PSR sort gate)” value is reported as “high polyreactivity”.
With “QVQLQESGGHLEQSGGSLRLSCTASGTISDVRVMGWYRQAPGKERELVATISYVTITYYADSVKGRFTISRDSEKHRVSADDEPETGRYRGVLLRYYWGLGTQVTVSS” the “polyreactivity (PSR sort gate)” value was “low polyreactivity”.
For “QDQRVESGGGLVQAGGSLRLSCAASGRIFSWYAMGWYRQAPGQERELVAAIDSGGRTNYADSVKGRFTISRDNAKNTVYLQMNSLKPEDTAVYYCAKEGYWPRYWERFDYWGQGTQVTVSS”, the “polyreactivity (PSR sort gate)” value was “low polyreactivity”.
For “QVQLVESGGGLVQAGGSLRLSCAASGSTFRYYAMGWYRQAPGKERELVAAITRGDSTNYADSVKGRFTISRDNAKNTVYLQMNSLKPEDTAVYYCNAGDGPDEEYDYWGQGTQVTVSS”, the “polyreactivity (PSR sort gate)” value was “low polyreactivity”.
For “QFQLVESGGGLVQAGGSLRLSCASSGSIFYGNAMVCYRQAPGKERELVADIRWSGGSTYYADSVKGRFTISRDNAKNTVYLQMNSLKPEDTAVYYCAVRSPYRWRYASRYHEYDYWGQGTQVTVSS”, the “polyreactivity (PSR sort gate)” value was “low polyreactivity”.
With “QVQLVESGRGLVQAGGSLRLSCAASGRTFGYYAMGWYIQAPGKERELVAAISYSGGSTYYADSVKGRFKISRDNAKNTVYLQMNSLKPEDTAVYYCAAYLRRYPWYDYWVQGTQVTVSS” the “polyreactivity (PSR sort gate)” value was “high polyreactivity”.
For “QVQLVESGGGLVQAGGSLRLSCAASGNIFPIYPMGWYRQAPGKERELVASIYRGGTTYYADSVKGRFTISRDNAKNTVYLQMNSLKPEETAVYYCAVYSPRLRRVHTRGYWGQGTQVTVSS”, the “polyreactivity (PSR sort gate)” value was “high polyreactivity”.
With “QVQLVESGGGLVQAGGSRRLSCAASGNTFYGYAMGWYRQAPGKERELVASITMSGDSTYYADSVKGRFTISRDNAKNTVYLQMNSLKPEYTSVYYCAGVYTYPLGYYHYTYDYWGQGTQVTVSS” the “polyreactivity (PSR sort gate)” value was “low polyreactivity”.
For “QVQLVESGGGLVQAGGSLRLSCAASGRTFKGNAMGWYRQAPGKERELVAAISKSGGRTYYADSVKGRFTISRDNAKNTVYLQMNSLKPEDTAVYYCAAGYYPSSSGDDYWGQGTQVTVSS”, the “polyreactivity (PSR sort gate)” value was “high polyreactivity”.
In the case of “QVQLVESGGGLVQAGGSLRLSCAASGSTFRYNTMGWYRQAPGKEREFVAAISQSGGSTYYADSVKGRFTISRDNAKNTVYLQMNSLKPEDTAVYYCNARPFYATYRYRGYSWGQGTQVTVSS”, the “polyreactivity (PSR sort gate)” value is reported as “high polyreactivity”.
With “QVQLVESGGGLVQAGGSLRLSCAASGRIFSYYAMGWYRQAPGKERELVATINSGGSTNYADSVKGRFTISRDNAKNTVYLQMNSLKPEDTAVYYCAASPVWWYDYWGQGTQVTVSS” the “polyreactivity (PSR sort gate)” value was “low polyreactivity”.
In the case of “QVQLVESGGGLVQAGGSLRLSCAASGSTFARYAMGWYRQAPGKERELVAAITWGGGGTYADSVKGRFTISRDNAKNTVSLQMNSLKPEDTAVYYCNAYGPLILFIGFRLDYWGQGTQVTVSS”, the “polyreactivity (PSR sort gate)” value is reported as “low polyreactivity”.
With “QVQLVESGGGLVQAGGSLRLSCAASGIIFRYYAMGWYRQPPGKERELVASISRGGSTYYADSVKGRFTISRDNAKNTVYLQMNSLKPEDTAVYYCAADVYPVYLYGYEYWGQGTQVTVSS” the “polyreactivity (PSR sort gate)” value was “high polyreactivity”.
With “QVQLVESGGGLVQAGGSLRLSCAASGFTFRAYAMGWYRQAPGKERELVAAITRSGVSTYYADSVKGRFTISRDNAKNTVYLQMNSLKPEDTAVYYCAAVAQRVGRSGTIEGDSWGQGTQVTVSS” the “polyreactivity (PSR sort gate)” value was “high polyreactivity”.
For “QVQHVESGGGLVQAGGSLRLTCAATGFTFEKNAMGWYRQAPGKERELVAAISRGGSTYADSVKGRFTISRDNAKNTVYLQMNSLKPEDTAVYYCAADTVYIFSSAINGEFVFWGQGTQVTVSS”, the “polyreactivity (PSR sort gate)” value was “low polyreactivity”.
In the case of “QVQLVESGGGLVQAGGSLRLSCAASGRTLPYNAMAWYRQAPGKESELVAAITWSGGRTYYADSVKGRFTISRDNAKNTVYLQMNSLKPEDTAVYYCAAGKSSYGKPKYYYWGQGTQVTVSS”, the “polyreactivity (PSR sort gate)” value is reported as “high polyreactivity”.
With “QVQLVESGGGLVQAGGSLRLSCAASGSTFDSNVMGWYRQAPGKERELVAAINYSGVRTYYADSVKGRFTISRDNAKNTVYLQMNSLKPEDTAVYYCNARLFSYRYPEGGYWGQGTQVTVSS” the “polyreactivity (PSR sort gate)” value was “high polyreactivity”.
In the case of “QGQLVESGGGLLQAGGSLSLSCAATGFTFTENAMGWYRQEPGKEREFVAYISSSGDSTYYSDSVKGRFTISRDNAKNTVYLQMNSLKPEDTAVYYCYRDLVYDYYYVPQPSRFDYWGQGTQVTLSS”, the “polyreactivity (PSR sort gate)” value is reported as “high polyreactivity”.
With “QVQLVESGGGLVQAGGSLRLSCAASGSTFWFYAMGWYRQAPGKERELVAANSRSSGSTYYADSVKGRFTISRDNAKNTVYLQMNSLKPEDTAVFSCAAVEPDRDYGYWGQGTQVTVSS” the “polyreactivity (PSR sort gate)” value was “low polyreactivity”.
With “QVQLVESGGGLVQAGGSLRLSCAASGFTIKWYTMGWYRPAPGKERELVAGISRRGGSTYYADSVKGRFTISRDNAKNTVYLEMNSLKPEDTAVYYCNVYSRTHYQTYTDDYWGQCTQVTVSS” the “polyreactivity (PSR sort gate)” value was “high polyreactivity”.
For “QVQLVESGVGLVQAGGSLRLSCAASGSIFGYNDMGWYRQAPGKERELVAVITSGGSTNYADSVKGRFTISRDNAKNTVYLQMNSLKPEDTAVYYCNAEGVFGDGRSGFYWYDYWGQGTQVTVSS”, the “polyreactivity (PSR sort gate)” value was “low polyreactivity”.
With “QVQLVESGGGLVQAGGSLRLSCAASGLIFYGNAMGWYREAPGKERELVAAISRRGGRTYYADSVKGRYTISRDNAKNTVYLQMNSLKPEDTAVYYCAAGVPKNGQAGYDYWGQGTQVTVSS” the “polyreactivity (PSR sort gate)” value was “high polyreactivity”.
In the case of “QVQLVESGAGLFKAGGSLRLSCAASGRIFATNAMGWYRQAPGKERELVAAISSSGGSTYYADSVKGRFTISRDNAKNTVYLQMNSLKPEDTAVYDCAAAHSYYVHYYYWGQGTQGTVSS”, the “polyreactivity (PSR sort gate)” value is reported as “high polyreactivity”.
With “QVQLVESGGALVQAGGSLRLSCAASGSTFYWNTMGWYRQAPGKERELVASITRGGSTYYADSVKGRFTISRDNAKNTVYLQMNSLKPEDSAVYYCNVLAWSYGYRYYSWGQGTQVTVSS” the “polyreactivity (PSR sort gate)” value was “high polyreactivity”.
With “QVQLVESGGGLVQAGGSLRLSCAASGLTFIFYAMGWYRPAPGKERELVAAISVSGGSTYYADSVKGRFTISRDNAKNTVYLQMNSLKPEDTAVYYCAADREHFATYGPHMDYWGQGTQVTVSS” the “polyreactivity (PSR sort gate)” value was “low polyreactivity”.
In the case of “QVQLVESGGGLVQAGGSLRLSCAASGITIYWYAMGWYRQAPGKERELVAAITRSVGSTYYADSVKGRFTISRDNAKNTVYLQMNSLKPEDTAVYYCAADFYYYGFDYWGQGTQVTVSS”, the “polyreactivity (PSR sort gate)” value is reported as “low polyreactivity”.
For “QVQLVDSAGCLVQAGGTLRLSGSASGSIFDAYAMGWYRQAPGKERELVASITSGGRTTYADSVKGRFTISRDNALNTVYLQMNSLKPEDTAVYYCAALRPGPRDDYWGQGSQVTVSS”, the “polyreactivity (PSR sort gate)” value was “high polyreactivity”.
For “QVQHVESVVGLVQAGVSLPLSGASSGYIFLENAMGWYRQATGKERELDAAITVSGGGTYYADSVKGRFTISRDNAKITVYLQMNSLKPEDTAVYYCAADEDNPWLWFYYWGLGTQVTVSS”, the “polyreactivity (PSR sort gate)” value was “low polyreactivity”.
With “QVQLVESGGGLVQAGGSLRLSCAASVFIFGYYAMGWYRQAPGKERELVADISWSGVSTYYADSVKGRFTISRDNAKNTVYLQMNSLKPEDNAVYYCAVGYVLTGVFQARFDYWGQGTQVTVSS” the “polyreactivity (PSR sort gate)” value was “high polyreactivity”.
For “QVQLVESGGGLVQAGGSLRLSCAASGSTFYYNTMGWYRQAPGKERELVAAITSGDTTYYADSVKGRFTISRDNAKNTVYLQMNSLKPEDTAVYYCAAAWPYARYDYWGQGTQVTVSS”, the “polyreactivity (PSR sort gate)” value was “low polyreactivity”.
With “QVQLVESGGGLVQAGGSLRLSWAASGITFRYYAMGWYRHAPGKERELVAAITSGGSTYYADSVKGRFTISRDNAKNTVYLQMNSLKPEDTAVYYCAAKYTLGVSRHPPVKKFYYWGQGTQVTVSS” the “polyreactivity (PSR sort gate)” value was “high polyreactivity”.
In the case of “QVQLVESGGGLVQAGGSLRLSCAASGRTFSGYAMVWYRQAPGKERELVAAISSGGGSTYYADSVKGRFTISRDNAKNTVYLQMNSLKPEDTAVYYCAADGYPGDYDYWGQGTQVTVSS”, the “polyreactivity (PSR sort gate)” value is reported as “low polyreactivity”.
With “QVQLVESGGRLVQAGGSIRLSCAASGRTFYNNAMGWYRQAPGKERELVAAISSGGSTYYADSVKGRFTISRDNAKNTVYLQMNSLKPEDTAVYYCNVRRGGWGYRYYYWGQGNQVTVSS” the “polyreactivity (PSR sort gate)” value was “high polyreactivity”.
With “QVQLVESGGGLVQAGGSLRLSCAASGRIFYTNVMGWYRQATGKERELVAAISTGGGRTYYADSVKGRITISRDNAKNSVYLQMNSLKPEDTAVYDCAASGRYAIVWGDQYYGYYYWGQGTQVTVSS” the “polyreactivity (PSR sort gate)” value was “high polyreactivity”.
In the case of “QVQLVESGGGLVQAGGSLRLSCAASGFTFLYYDMGWYRQAPGKERELVAAITNDDSTYYADSVKGRFTISRDNAKNTVYLQMNSLKPEDTAVYYCNADVWYYTPYDYWGQVTQVTVSS”, the “polyreactivity (PSR sort gate)” value is reported as “high polyreactivity”.
